Data reported in patent US6518063 (University of Texas, dated 1998).

Columns and labels:
[1] = molecular target: T1, ΔN19.1.1 deletion mutant of Osf2 (His-tagged) (mouse, UniProt Q08775 99-607); test: EMSA with labeled OSE2 oligonucleotide, with or without Cbfβ
T1 construct: counted with Met69 of the cDNA as residue 1
Procedure: (§1) DNA-binding assays were performed with 5 fmol of ^32P-labeled double-stranded OSE2 oligonucleotides, in a buffer containing 20 mM Tris-HCl, pH 8.0, 10 mM NaCl, 3 mM EGTA, 0.05% NP-40, 5 mM DTT, and 2 μg of poly (dI.dC).poly (dI.dC), with equivalent amounts of wild type or mutant proteins. […] Typically, 100 ng of fusion protein bound to glutathione-agarose beads was used for each assay, while the amount of labeled protein in the assay was determined using fluorography.

[2] = molecular target: T2, histidine-tagged recombinant Osf2/Cbfa1 polypeptide (His-Osf2/Cbfa1) (mouse, UniProt Q08775 80-607); test: as above
T2 construct: Bacterially expressed, enriched on Ni resin; also called His-tagged Osf2/Cbfa1 polypeptide
T2 sequence (Q08775 other isoform, or with tags, fused parts or gaps): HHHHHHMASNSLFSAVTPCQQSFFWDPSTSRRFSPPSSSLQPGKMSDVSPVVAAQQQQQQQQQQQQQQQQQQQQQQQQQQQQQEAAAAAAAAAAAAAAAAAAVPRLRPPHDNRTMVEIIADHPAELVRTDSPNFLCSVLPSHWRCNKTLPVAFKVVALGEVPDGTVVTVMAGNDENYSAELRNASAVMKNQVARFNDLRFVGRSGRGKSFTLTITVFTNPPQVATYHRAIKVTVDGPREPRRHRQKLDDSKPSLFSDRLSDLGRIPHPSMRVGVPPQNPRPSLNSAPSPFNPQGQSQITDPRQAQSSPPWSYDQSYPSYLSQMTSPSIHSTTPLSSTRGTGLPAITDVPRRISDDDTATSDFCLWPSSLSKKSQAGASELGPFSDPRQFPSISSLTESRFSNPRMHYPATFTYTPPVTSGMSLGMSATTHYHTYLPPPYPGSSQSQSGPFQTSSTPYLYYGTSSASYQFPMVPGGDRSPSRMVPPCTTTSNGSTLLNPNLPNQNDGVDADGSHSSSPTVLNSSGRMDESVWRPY
Procedure: as §1

T1 sequence (Q08775 other isoform, or with tags, fused parts or gaps mutant): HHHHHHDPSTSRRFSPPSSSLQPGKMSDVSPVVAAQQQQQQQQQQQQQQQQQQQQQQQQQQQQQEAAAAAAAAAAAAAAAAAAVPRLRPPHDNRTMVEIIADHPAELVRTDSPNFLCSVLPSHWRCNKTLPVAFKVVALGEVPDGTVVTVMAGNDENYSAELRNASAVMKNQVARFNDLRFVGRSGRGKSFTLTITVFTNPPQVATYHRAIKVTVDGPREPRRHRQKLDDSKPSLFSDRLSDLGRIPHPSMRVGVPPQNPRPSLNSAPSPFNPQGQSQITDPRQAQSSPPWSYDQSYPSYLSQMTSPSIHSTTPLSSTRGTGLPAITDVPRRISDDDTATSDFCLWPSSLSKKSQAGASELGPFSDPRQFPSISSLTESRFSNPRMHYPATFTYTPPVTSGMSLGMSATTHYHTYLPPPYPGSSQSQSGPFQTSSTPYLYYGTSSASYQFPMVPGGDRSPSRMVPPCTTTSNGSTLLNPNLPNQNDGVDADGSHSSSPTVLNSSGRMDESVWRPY

binding result [1]: no binding
binding result [2]: no binding
B1: histidine-tagged Cbfβ (other)
chain: HHHHHHMPRVVPDQRSKFENEEFFRKLSRECEIKYTGFRDRPHEERQTRFQNACRDGRSEIAFVATGTNLSLQFFPASWQGEQRQTPSREYVDLEREAGKVYLKAPMILNGVCVIWKGWIDLHRLDGMGCLEFDEERAQQEDALAQQAFEEARRRTREFEDRDRSHREEMEARRQQDPSPGSNLGGGDDLKLR
notes: Recombinant Cbfβ added in EMSA; also called Cbf]3
